Key:
GST activity toward CDNB = assay type: biochemical
Procedure: (§1) The purified isoenzymes were assayed for GST activity toward herbicides using the HPLC-based assays described by Edwards R. and Cole D. J. (Pesticide Biochemistry and Physiology Vol. 54, pp96-104 (1996)) and the results are presented in Table 2. […] These isoenzymes had additional activities as glutathione peroxidases able to reduce linoleic acid hydroperoxide, a major reaction product formed during membrane peroxidation in plants (Williamson and Beverly. J. Cereal Sci. 8, 1988, 155-163).
To confirm that TaGST1 encoded a GST, it was expressed as a fusion protein with beta-galactosidase using the pBluescript plasmid in E. coli strain SOLR. TaGST1 clones were inoculated into LB liquid medium and were grown overnight at 37/C on all orbital shaker in the presence of IPTG. Bacteria were then pelleted by centrifugation, lysed by sonication and assayed for GST activity toward CDNB and analysed by SDS-PAGE and Western blotting using the anti-TaGSTI-I serum. With all six TaGST1 clones, GST activity toward CDNB could be determined in the crude extracts in the range 30-50 nkat/mg crude lysate.
(§2) To assay the recombinant fusion proteins for GST activity, the E. coli were grown in the presence of IPTG and then pelleted by centrifugation. The bacteria were then lysed by sonication and the protein precipitated using 80% ammonium sulphate. After resuspension and desalting, GSTs were purified by affinity chromatography. The WIC 3 fusion protein was purified using sulphobromophthalein-S-glutathione affinity chromatography (Mozer et al. Biochem. 22, 1983, 1068-1072) while the other WIC fusion proteins were purified using glutathione-agarose (Mannervik and Guthenberg. Methods Enzymol. 77 1981, 231-235).The purified enzymes were then assayed for GST activities toward herbicides (Table 3) and GST activities toward non-herbicide substrates and glutathione peroxidase activities toward organic hydroperoxides (Table 4).
A polyclonal antiserum was raised in a rabbit to a mixture of TaGST1-2 and TaGST1-3. When tested against crude extracts from safener-treated wheat shoots the antiserum recognised both the 25 kDa TaGST1 subunit and the 26 kDa safener-inducible TaGST2 and TaGST3 subunits. The antiserum was then used in conjunction with the antiserum raised to TaGST1-1 to immuno screen the cDNA library prepared from fenchlorazole ethyl treated wheat shoots as described in example 1. Duplicate lifts were taken from the plated out library and the first blot screened with the antiserum raised against TaGST1-2 and TaGST1-3. The second blot was screened with the antiserum raised to TaGST1-1. Five plaques were identified from the first blot which were absent from the second blot corresponding to cDNAs encoding TaGST2 or TaGST3 like polypeptides and theses clones were purified and the respective plasmids sequenced. […] The other three clones ICC. ICP and ICV had identical DNA sequences (SEQ ID No. 17) and predicted amino acid sequence (SEQ ID No. 18). GST ICJ was sub-cloned into the pET 11a vector after using PCR to introduce a Nde 1 restriction site into the translation start site, using the primer 5′ AGGTAGTTACATATGGCCGGAGGA 3′ (SEQ ID No. 19) in the amplification. following sub-cloning, the sequence of GST ICJ was re-checked to ensure no PCR induced errors had been introduced. The recombinant GST ICJ was then expressed in E. coli and purified by S-hexylglutathione affinity chromatography. The purified GST ICJ was assayed for activities as a GST (Table 3) and as a glutathione peroxidase (Table 4). […] GST ICV was finally expressed as the respective beta-galactosidase fusion protein using the Bluescript plasmid and assayed for GST activity (Table 3 ) and glutathione peroxidase activity (Table 4) in crude bacterial lysates. […]

[1] = GST activity toward herbicide fluorodifen (HPLC-based assay); assay type: biochemical
Procedure: as §1, §2
(§3) A polyclonal antiserum was raised in a rabbit to a mixture of TaGST1-2 and TaGST1-3. When tested against crude extracts from safener-treated wheat shoots the antiserum recognised both the 25 kDa TaGST1 subunit and the 26 kDa safener-inducible TaGST2 and TaGST3 subunits. The antiserum was then used in conjunction with the antiserum raised to TaGST1-1 to immuno screen the cDNA library prepared from fenchlorazole ethyl treated wheat shoots as described in example 1. Duplicate lifts were taken from the plated out library and the first blot screened with the antiserum raised against TaGST1-2 and TaGST1-3. The second blot was screened with the antiserum raised to TaGST1-1. Five plaques were identified from the first blot which were absent from the second blot corresponding to cDNAs encoding TaGST2 or TaGST3 like polypeptides and theses clones were purified and the respective plasmids sequenced. […] The other three clones ICC. ICP and ICV had identical DNA sequences (SEQ ID No. 17) and predicted amino acid sequence (SEQ ID No. 18). GST ICJ was sub-cloned into the pET 11a vector after using PCR to introduce a Nde 1 restriction site into the translation start site, using the primer 5′ AGGTAGTTACATATGGCCGGAGGA 3′ (SEQ ID No. 19) in the amplification. following sub-cloning, the sequence of GST ICJ was re-checked to ensure no PCR induced errors had been introduced. The recombinant GST ICJ was then expressed in E. coli and purified by S-hexylglutathione affinity chromatography. The purified GST ICJ was assayed for activities as a GST (Table 3) and as a glutathione peroxidase (Table 4). […] GST ICV was finally expressed as the respective beta-galactosidase fusion protein using the Bluescript plasmid and assayed for GST activity (Table 3 ) and glutathione peroxidase activity (Table 4) in crude bacterial lysates. The specific activity of GST ICV toward these substrates was then calculated by I) subtracting the low levels of GST and GPOX activity present due the endogenous activities in the E. coli and ii) determining the proportion of protein in the lysate present as recombinant GST ICV from SDS-PAGE analysis, by densitometry analysis of polypeptides stained with Coomassie blue.

[2] = GST activity toward herbicide fenoxaprop-ethyl (HPLC-based assay); assay type: biochemical
Procedure: as §1, §2, §3

[3] = GST activity toward herbicide metolachlor (HPLC-based assay); assay type: biochemical
Procedure: as §1, §2, §3

wheat shoots = assay: Enhancement of GST isoenzyme expression in wheat shoots by safener fenchlorazole-ethyl; assay type: in vivo, Triticum aestivum L. var. Hunter
Procedure: Wheat seeds (Triticum aestivum L. var. Hunter) were imbibed in a 10 mg/l solution of the herbicide safener fenchlorazole-ethyl and then grown in an environmental growth room with further root-applied watering treatments of 5 mg/l fenchlorazole ethyl applied as required. At 10 days after imbibing, the shoot tissue was harvested and extracted prior to precipitation of the protein with ammonium sulphate (80% saturation). The total protein extract was then applied in the presence of 1 M ammonium sulphate to a phenyl-Sepharose column. The bound GSTs were then recovered, firstly by reducing the ammonium sulphate concentration to 0 M to yield the polar GST fraction, which represented 61% of the recovered activity toward 1-chloro-2,4-dinitrobenzene (CDNB). The remaining 39% of the GST activity was then recovered by adding ethylene glycol (50% v/v) to the running buffer to yield the hydrophobic GST fraction. […] The component polypeptides in the active fractions were then analysed by silver staining after resolution by sodium dodecyl sulphate polyacrylamide gel electrophoresis (SDS-PAGE). It was concluded that in fenchlorazole-ethyl-treated wheat the polar GSTs were composed of 25 kDa and 26 kDa polypeptides, while the hydrophobic fraction contained 25 kDa, 26 kDa and 24 kDa polypeptides. Further analysis by reversed-phase HPLC confirmed the subunit compositions (FIG. 2). Based on the combined analyses by Q-sepharose, HPLC and SDS-PAGE these GST polypeptides were named as described in Table 1, which also contains details of how these subunits associate together to form the active dimers found in plants and the relative abundance of these subunits in extracts from unsafened and fenchlorazole-ethyl treated ([…]) plants.

[4] = Glutathione peroxidase activity toward cumene hydroperoxide; assay type: biochemical
Procedure: as §2, §3

[5] = isoenzymes purified from fenchlorazole-ethyl-treated wheat shoots
[6] = recombinant wheat GST expressed in E. coli, affinity purified
[7] = recombinant wheat GST expressed in E. coli, affinity purified, ± standard error
[8] = beta-galactosidase fusion in crude bacterial lysates, E. coli background subtracted, corrected for proportion of recombinant protein

B1: TaGST1-1: wheat GST isoenzyme purified from safener-treated shoots, homodimer of 25 kDa TaGST1 subunits (SEQ ID No. 2/SEQ ID No. 2) (protein)
chain 1: MAGEKGLVLLDFWVSPFGQRVRIALAEKGLPYEYAEEDLMAGKSDRLLRANPVHKKIPVLLHDGRAVNESLIILQYLEEAFPDAPALLPSDPYARAQARFWADYVDKKVYDCGSRLWKLKGEPQAQARAEMLDILKTLDGALGDKPFFGGDKFGFVDAAFAPFTAWFHSYERYGEFSLPEVAPKIAAWAKRCGERESVAKSLYSPDKVYDFIGLLKKKYGIE
chain 2: B1 chain 1
modifications: homodimer; Triticum aestivum L.
- GST activity toward CDNB (GST activity toward CDNB; [5]): 1,528 nkat.mg^−1
- GST activity toward fluorodifen [1, 5]: 0.97 nkat.mg^−1
- GST activity toward fenoxaprop-ethyl [2, 5]: 0 nkat.mg^−1
- GST activity toward metolachlor [3, 5]: 0.11 nkat.mg^−1
- % enhancement by safener (wheat shoots; fenchlorazole-ethyl treated (safened) versus unsafened wheat shoots): 30-50%
- Increase in expression following exposure to fenchlorazole-ethyl (wheat shoots; leaves of wheat seedlings): approximately 50%

B2: TA 27: recombinant wheat GST from cloquintocet-mexyl-induced cDNA, SEQ ID No. 13, amino acid SEQ ID No. 14, expressed from pET 11a (protein)
chain: MEPMKVYGWAVSPWMARVLVSLEEAGADYELVPMSRNGGDHRRPEHLARNPFGEIPVLEYGGLTLYQSRAIARHILRKHKPGLLGAGSLEESAMVDVWVDVDAHHLEPVLKPIVWNCIINPFVGRDVDQGLVDESVEKLKKLLEVYEARLSSNKYLAGDFVSFADLTHFSFMRYFMATEHAVVLDAYPHVKAWWKALLARPSVKKVIAGMPPDFGFGSGRIP
modifications: Triticum aestivum L.
- GST activity toward CDNB (GST activity toward CDNB; [6]): 237 nkat.mg^−1
- GST activity toward fluorodifen [1, 7]: 0.034 ± 0.003 nkat.mg^−1
- GST activity toward fenoxaprop-ethyl [2, 7]: 0.036 ± 0.004 nkat.mg^−1
- GST activity toward metolachlor [3, 7]: 0.063 ± 0.006 nkat.mg^−1
- Glutathione peroxidase activity toward cumene hydroperoxide ([4]; recombinant wheat GST, affinity purified, ± standard error (n = 3)): 3.6 ± 0.4 absorbance change at 340 nm.mg^−1

B3: ICR: recombinant safener-inducible type III wheat GST clone, SEQ ID No. 15, amino acid SEQ ID No. 16 (protein)
chain: MAGDGELKLLGVWTSPFVIRVRVVLNLKSLPYEYVEESLGSKSALLLGSNPVHQSVPVLLHGGRPVNESQVIVQYIDEVWAGAGPSVLPADPYERATARFWAAYVDDKVGSAWTGMLFSCKTEEERAEAVSRAVAALETLEGAFAECSKGKAFFGGDAIGFVDVVLGGYLGWFGAIDKIIGRRLIDPARTPLLARWEERFRAADAAKGVVPDDADKMLEFLPTVLAWIAGKAK
modifications: Triticum aestivum L.
- GST activity toward CDNB (GST activity toward CDNB; [6]): 8139 nkat.mg^−1
- GST activity toward fluorodifen [1, 7]: 0.037 ± 0.002 nkat.mg^−1
- GST activity toward fenoxaprop-ethyl [2, 7]: 0.028 ± 0.001 nkat.mg^−1
- GST activity toward metolachlor [3, 7]: 0.000 ± 0.000 nkat.mg^−1

B4: ICC/V/P: recombinant type III wheat GST; clones ICC, ICP and ICV with identical sequence, SEQ ID No. 17, amino acid SEQ ID No. 18 (protein)
chain: MAGGEELKLLGWWAPGVSPYVLRAQMALAVKGLSYDYLPEDRWSTSDLLIASNPVYKKVPVLIHNGRPVCESLLILEYLDDAVGLAGNGKPILPADPYSRAVARFWAAYVNDKLFPSCTGILKTTKQEERAGKMEETLSGLRHLEAVMAECSEGEAEAPFFGGDAIGFLDIALGCYLPWFEAAGRLAGLGPIIDPARTPKLAAWAERFSVAEPIKALLPGVDKLEEYITTALYPKWNIAVTGN
modifications: Triticum aestivum L.
- GST activity toward CDNB (GST activity toward CDNB; [8]): 30 nkat.mg^−1
- GST activity toward fluorodifen [1, 8]: 0.000 ± 0.000 nkat.mg^−1
- GST activity toward fenoxaprop-ethyl [2, 8]: 0.074 ± 0.008 nkat.mg^−1
- GST activity toward metolachlor [3, 8]: 0.000 ± 0.000 nkat.mg^−1
- Glutathione peroxidase activity toward cumene hydroperoxide [4, 8]: 0.84 ± 0.04 absorbance change at 340 nm.mg^−1

Reference: patent publication US6730828B1, “Isolated nucleic acids encoding a wheat glutathione transferase, plants transformed therewith and methods of use thereof” (Aventis Agriculture Limited, priority 1997, dated 2004)
